Publication PMC8307404, “Crystal Structure-Guided Design of Bisubstrate Inhibitors and Photoluminescent Probes for Protein Kinases of the PIM Family” (Molecules, 2021)
Square brackets hold non-standard residues; d marks the D form. Peptide text beside a SMILES is read from it. * marks the point of attachment. X3 = O=C(CCCCCNCc1nc2c(sc3cc(Br)cnc32)c(=O)[nH]1)*

How the values were obtained:
CAMK1 = CAMK1 (Homo sapiens, UniProt Q14012); assay: Kinase profiling (radiometric filter-binding); format: biochemical; settings: CAMK1, 1 µM inhibitor; read-out: Residual activity, %
Procedure: (§1) Kinase selectivity profiling was performed using the commercial service provided by the MRC PPU International Centre for Kinase Profiling (Dundee, UK) using a radiometric filter-binding assay. Kinases used for analysis were of human origin. The ATP concentration applied for inhibition measurements was at or below the ATP KM value of the particular PK. ARC-3125 and ARC-3126 were screened against 139 PKs, whereas compounds 1, 2, and 8 were screened against 140 PKs. The final total concentration of inhibitors in the selectivity panel was 1 µM. Residual activities were expressed as the percentage of retained activity compared to the control without inhibitor.

DYRK1A = DYRK1A (Homo sapiens, UniProt Q13627); assay: Kinase profiling (radiometric filter-binding); format: biochemical; settings: 1 µM inhibitor, read-out: Residual activity, %
Procedure: as §1

PKBβ = PKBβ (Homo sapiens, UniProt P31751); assay: Kinase profiling (radiometric filter-binding); format: biochemical; settings: PKB, second of two PKB lines (Greek letter lost; PKBβ), 1 µM inhibitor; read-out: Residual activity, %
Procedure: as §1

RSK1 = RSK1 (Homo sapiens, UniProt Q15418); assay: Kinase profiling (radiometric filter-binding); format: biochemical; settings: RSK1, 1 µM inhibitor; read-out: Residual activity, %
Procedure: as §1

TAO1 = molecular target: T1, TAO1 (Homo sapiens, UniProt Q7L7X3); assay: Kinase profiling (radiometric filter-binding); format: biochemical; settings: TAO1, 1 µM inhibitor; read-out: Residual activity, %
T1 sequence (Q7L7X3 1-1001): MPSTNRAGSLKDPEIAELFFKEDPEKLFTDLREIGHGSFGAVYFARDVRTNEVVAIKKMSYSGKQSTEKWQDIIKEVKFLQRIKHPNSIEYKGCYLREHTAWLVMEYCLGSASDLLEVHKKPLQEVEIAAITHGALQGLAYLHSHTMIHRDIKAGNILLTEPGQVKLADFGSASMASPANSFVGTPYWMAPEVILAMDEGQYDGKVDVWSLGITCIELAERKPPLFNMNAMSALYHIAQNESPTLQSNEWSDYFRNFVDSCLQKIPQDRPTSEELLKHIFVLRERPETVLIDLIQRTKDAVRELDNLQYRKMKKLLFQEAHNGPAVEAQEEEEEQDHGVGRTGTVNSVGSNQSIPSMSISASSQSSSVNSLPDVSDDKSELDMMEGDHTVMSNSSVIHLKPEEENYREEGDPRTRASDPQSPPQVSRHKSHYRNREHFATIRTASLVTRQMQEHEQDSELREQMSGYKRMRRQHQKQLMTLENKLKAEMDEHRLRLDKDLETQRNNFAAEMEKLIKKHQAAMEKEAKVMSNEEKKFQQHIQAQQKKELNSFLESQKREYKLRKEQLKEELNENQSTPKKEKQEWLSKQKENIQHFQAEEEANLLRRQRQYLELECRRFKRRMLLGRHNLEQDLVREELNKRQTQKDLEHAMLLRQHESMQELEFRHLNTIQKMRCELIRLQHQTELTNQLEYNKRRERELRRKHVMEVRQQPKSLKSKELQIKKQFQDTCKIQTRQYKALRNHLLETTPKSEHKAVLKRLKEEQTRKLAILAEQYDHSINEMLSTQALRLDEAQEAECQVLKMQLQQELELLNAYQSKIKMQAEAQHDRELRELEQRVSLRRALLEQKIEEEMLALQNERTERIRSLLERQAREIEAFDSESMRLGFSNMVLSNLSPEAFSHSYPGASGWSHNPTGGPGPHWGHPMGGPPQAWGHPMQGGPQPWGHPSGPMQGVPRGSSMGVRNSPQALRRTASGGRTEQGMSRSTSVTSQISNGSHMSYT
Procedure: as §1

TBK1 = molecular target: T2, TBK1 (Homo sapiens, UniProt Q9UHD2); assay: Kinase profiling (radiometric filter-binding); format: biochemical; settings: TBK1, 1 µM inhibitor; read-out: Residual activity, %
T2 sequence (Q9UHD2 1-729): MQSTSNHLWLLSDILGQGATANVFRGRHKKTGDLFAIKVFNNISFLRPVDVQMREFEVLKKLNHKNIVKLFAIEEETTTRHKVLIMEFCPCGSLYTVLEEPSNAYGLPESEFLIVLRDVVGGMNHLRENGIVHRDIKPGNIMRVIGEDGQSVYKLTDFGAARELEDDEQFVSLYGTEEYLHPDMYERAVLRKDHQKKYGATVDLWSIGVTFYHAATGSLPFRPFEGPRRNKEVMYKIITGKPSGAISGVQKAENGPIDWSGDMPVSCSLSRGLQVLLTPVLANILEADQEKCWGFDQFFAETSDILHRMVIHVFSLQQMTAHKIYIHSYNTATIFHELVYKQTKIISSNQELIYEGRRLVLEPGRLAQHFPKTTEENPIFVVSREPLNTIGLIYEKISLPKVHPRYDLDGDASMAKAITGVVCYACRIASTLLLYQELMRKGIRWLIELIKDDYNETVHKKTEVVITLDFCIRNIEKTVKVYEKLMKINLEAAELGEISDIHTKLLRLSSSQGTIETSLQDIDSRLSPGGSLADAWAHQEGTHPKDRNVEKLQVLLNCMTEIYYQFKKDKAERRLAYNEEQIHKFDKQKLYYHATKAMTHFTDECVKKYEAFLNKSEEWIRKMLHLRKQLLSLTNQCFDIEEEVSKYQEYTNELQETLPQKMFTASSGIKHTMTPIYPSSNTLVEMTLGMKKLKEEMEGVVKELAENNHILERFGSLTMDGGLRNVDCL
Procedure: as §1

PIM1 = PIM1 (Homo sapiens, UniProt P11309); assay: Binding/displacement assay with FA or TGLI readout; parameters: made in house; settings: KD, nM (PIM-1), TGLI or FA readout; mean ± SEM, N = 2
Chain of PIM1 (P11309 whole entry): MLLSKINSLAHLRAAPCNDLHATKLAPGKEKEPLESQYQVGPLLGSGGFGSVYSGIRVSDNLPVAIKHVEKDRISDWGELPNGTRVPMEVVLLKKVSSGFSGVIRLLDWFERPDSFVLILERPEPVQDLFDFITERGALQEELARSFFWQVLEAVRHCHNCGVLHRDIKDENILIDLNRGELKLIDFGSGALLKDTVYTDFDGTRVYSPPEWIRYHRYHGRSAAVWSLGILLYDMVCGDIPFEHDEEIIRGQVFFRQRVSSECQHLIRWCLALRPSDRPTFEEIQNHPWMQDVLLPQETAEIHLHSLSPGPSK
Procedure: The affinities of the compounds toward the PIM family PKs were determined in a binding/displacement assay with measurement of fluorescence anisotropy (FA) and time-gated luminescence intensity (TGLI) (Table 2). For the initial assessment of the selectivity of compounds, PKAcα was used as the reference basophilic kinase [10].
Optical FA measurement modules for 5-TAMRA-labeled compounds (ex. 540(20) nm, em. 590(20) nm and 590(20) nm), for Cy5-labeled compounds (ex. 590(50) nm, em. 675(50) nm and 675(50) nm), and optical TGLI measurement modules for ARC-1451 (ex. 330(60) nm, em. 590(50) nm), for ARC-1188 (ex. 330(60) nm, em. 675(50) nm) were used for assays with PHERAstar microplate reader (BMG Labtech; Ortenberg, Germany). TGLI measurements were performed with a delay time of 50 μs and integration of the signal for 150 μs. In each measurement, emission from 200 flashes of excitation radiation was collected. The measurement solutions (20 µL volumes) were prepared in black 384-well low-binding surface microtiter plates (Corning #4514; Kennebunk, ME, USA) and incubated for 20 min at 30 °C before the measurements. The assay buffer contained HEPES hemisodium salt (pH 7.4, 50 mM), NaCl (150 mM), dithiothreitol (5 mM), bovine serum albumin (0.5 mg/mL), and Tween-20 (0.005%). […] 5.04 (GraphPad Software, Inc.) was used for data analysis with FA [32] or TGLI [33] readouts.

Chain of RSK1 (Q15418 whole entry): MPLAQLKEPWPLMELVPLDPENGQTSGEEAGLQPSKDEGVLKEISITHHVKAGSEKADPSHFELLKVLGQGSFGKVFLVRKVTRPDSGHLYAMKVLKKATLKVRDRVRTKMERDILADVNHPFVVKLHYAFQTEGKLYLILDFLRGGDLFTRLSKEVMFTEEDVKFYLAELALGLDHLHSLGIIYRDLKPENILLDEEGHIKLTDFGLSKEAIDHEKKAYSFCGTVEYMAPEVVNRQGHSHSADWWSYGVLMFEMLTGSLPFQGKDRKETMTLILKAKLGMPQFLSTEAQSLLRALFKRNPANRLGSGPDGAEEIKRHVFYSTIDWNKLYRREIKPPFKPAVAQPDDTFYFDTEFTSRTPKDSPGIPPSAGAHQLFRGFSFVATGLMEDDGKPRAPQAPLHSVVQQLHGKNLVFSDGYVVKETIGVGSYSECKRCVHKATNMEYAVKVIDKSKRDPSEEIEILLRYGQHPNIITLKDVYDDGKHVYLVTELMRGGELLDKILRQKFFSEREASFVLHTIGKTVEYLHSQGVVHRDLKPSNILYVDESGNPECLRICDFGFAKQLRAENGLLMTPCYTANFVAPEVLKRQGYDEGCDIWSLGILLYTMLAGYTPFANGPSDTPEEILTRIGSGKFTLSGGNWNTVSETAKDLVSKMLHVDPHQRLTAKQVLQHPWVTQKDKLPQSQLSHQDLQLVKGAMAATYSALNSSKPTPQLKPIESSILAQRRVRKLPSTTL
Chain of CAMK1 (Q14012 whole entry): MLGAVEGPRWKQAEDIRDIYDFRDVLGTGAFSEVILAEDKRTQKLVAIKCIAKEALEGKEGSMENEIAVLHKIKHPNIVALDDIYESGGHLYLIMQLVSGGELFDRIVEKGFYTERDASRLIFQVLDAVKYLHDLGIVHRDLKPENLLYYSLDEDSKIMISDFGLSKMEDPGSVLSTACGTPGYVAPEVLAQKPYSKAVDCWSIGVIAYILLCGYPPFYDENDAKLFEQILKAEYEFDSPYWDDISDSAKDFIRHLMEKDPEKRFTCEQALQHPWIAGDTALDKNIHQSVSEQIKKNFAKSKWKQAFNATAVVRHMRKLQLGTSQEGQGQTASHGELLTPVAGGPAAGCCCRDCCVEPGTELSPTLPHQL
Chain of PKBβ (P31751 whole entry): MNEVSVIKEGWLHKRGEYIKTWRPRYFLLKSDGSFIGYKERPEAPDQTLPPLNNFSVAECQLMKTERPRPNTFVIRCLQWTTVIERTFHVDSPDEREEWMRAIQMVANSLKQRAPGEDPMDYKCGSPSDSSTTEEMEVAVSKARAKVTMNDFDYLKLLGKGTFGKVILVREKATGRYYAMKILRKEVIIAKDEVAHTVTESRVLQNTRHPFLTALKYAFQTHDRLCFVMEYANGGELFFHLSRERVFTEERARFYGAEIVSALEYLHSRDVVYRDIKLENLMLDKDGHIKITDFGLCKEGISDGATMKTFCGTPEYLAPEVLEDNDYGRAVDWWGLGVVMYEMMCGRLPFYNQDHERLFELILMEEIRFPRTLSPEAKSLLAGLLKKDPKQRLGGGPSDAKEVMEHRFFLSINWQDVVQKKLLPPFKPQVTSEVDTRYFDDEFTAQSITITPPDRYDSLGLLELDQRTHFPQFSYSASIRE

SMILES | remaining activity at 1 µM (CAMK1) [%] | remaining activity at 1 µM (DYRK1A) [%] | remaining activity at 1 µM (PKBβ) [%] | remaining activity at 1 µM (RSK1) [%] | remaining activity at 1 µM (TAO1) [%] | remaining activity at 1 µM (TBK1) [%] | Kd (PIM1) [nM]
N=C(N)NCCC[C@@H](NC(=O)CNC(=O)[C@@H](CCCNC(=N)N)NC(=O)[C@@H](CCCNC(=N)N)NC(=O)Cn1cc(CNCc2nc3c(sc4ccc(Br)cc43)c(=O)[nH]2)nn1)C(=O)N[C@H](CCCCN)C(N)=O [Compound 3, BBTP-Amt-(D-Arg)2-Gly-D-Arg-D-Lys-NH2] | 49 ± 11 | 37 ± 15 | 54 ± 6 | 74 ± 12 | 80 ± 4 | 46 ± 4 | 0.7 ± 0.2
N=C(N)NCCC[C@@H](NC(=O)CCCCCNCc1nc2c(sc3cc(Br)cnc32)c(=O)[nH]1)C(=O)N[C@H](CCCNC(=N)N)C(=O)N[C@H](CCCNC(=N)N)C(=O)N[C@H](CCCNC(=N)N)C(=O)N[C@H](CCCNC(=N)N)C(=O)N[C@H](CCCNC(=N)N)C(=O)N[C@H](CCCCN)C(N)=O [ARC-3126, BPTP-Ahx-(D-Arg)6-D-Lys-NH2] (X3-[dR][dR][dR][dR][dR][dR][dK]-NH2) | 55 ± 9 | 99 ± 6 | 86 ± 10 | 82 ± 10 | 95 ± 3 | 105 ± 12 | 1.8 ± 0.7
CN(C)c1ccc2c(c1)Oc1cc(N(C)C)ccc1C21OC(=O)c2cc(C(=O)NCCCC[C@@H](NC(=O)[C@@H](CCCNC(=N)N)NC(=O)CNC(=O)[C@@H](CCCNC(=N)N)NC(=O)[C@@H](CCCNC(=N)N)NC(=O)CCCCc3cn(Cc4nc5c(sc6ccc(Br)cc65)c(=O)[nH]4)nn3)C(N)=O)ccc21 [Compound 8, BBTP-Tap-(D-Arg)2-Gly-D-Arg-[D-Lys(5-TAMRA)]-NH2] | 49 | 37 | 54 | 74 | 80 | 46 | 20.5 ± 4
N=C(N)NCCC[C@@H](NC(=O)CCCCCNC(=O)Cn1cnc2c(I)c(I)c(I)c(I)c21)C(=O)N[C@H](CCCNC(=N)N)C(=O)N[C@H](CCCNC(=N)N)C(=O)N[C@H](CCCNC(=N)N)C(=O)N[C@H](CCCNC(=N)N)C(=O)N[C@H](CCCNC(=N)N)C(=O)N[C@H](CCCCN)C(N)=O [ARC-3125, TIBI-CH2-C(=O)-Ahx-(D-Arg)6-D-Lys-NH2] | 3 ± 11 | 28 ± 7 | 1 ± 1 | 19 ± 1 | 32 ± 6 | 68 ± 3 | –
N=C(N)NCCC[C@@H](NC(=O)CNC(=O)[C@@H](CCCNC(=N)N)NC(=O)[C@@H](CCCNC(=N)N)NC(=O)CCCCCCCNCc1nc2c(sc3cc(Br)cnc32)c(=O)[nH]1)C(=O)N[C@H](CCCCN)C(N)=O [Compound 1, BPTP-Aoc-(D-Arg)2-Gly-D-Arg-D-Lys-NH2] | 81 ± 18 | 74 | 115 ± 26 | 95 | 106 ± 10 | 113 ± 29 | 11.4 ± 1
N=C(N)NCCC[C@@H](NC(=O)CNC(=O)[C@@H](CCCNC(=N)N)NC(=O)[C@@H](CCCNC(=N)N)NC(=O)CCCCCCCNCc1nc2c(sc3ccc(Br)cc32)c(=O)[nH]1)C(=O)N[C@H](CCCCN)C(N)=O [Compound 2, BBTP-Aoc-(D-Arg)2-Gly-D-Arg-D-Lys-NH2] | 81 | 5 | 101 | 31 | 49 | 113 | 0.4 ± 0.1
